Reference: patent US20210246194A1

Target: HIV-1 JRFL gp140 Recombinant protein (HIV-1 JRFL)
Assay: Attana Cell A200 QCM; IgG captured on anti-human IgG Fc; gp140 at 25, 50 and 100 nM; 1:1 fit

Binder	Kd [nM]
7B2 IgG (antibody, V domains shown) VH: QVQLVQSGGGVFKPGGSLRLSCEASGFTFTEYYMTWVRQAPGKGLEWLAYISKNGEYSKYSPSSNGRFTISRDNAKNSVFLQLDRLSADDTAVYYCARADGLTYFSELLQYIFDLWGQGARVTVSS VL: DIVMTQSPDSLAVSPGERATIHCKSSQTLLYSSNNRHSIAWYQQRPGQPPKLLLYWASMRLSGVPDRFSGSGSGTDFTLTINNLQAEDVAIYYCHQYSSHPPTFGHGTRVEIK	2.9
7B2GL IgG (antibody, V domains shown) VH: QVQLVESGGGLVKPGGSLRLSCAASGFTFSEYYMTWIRQAPGKGLEWVSYISKNGEYSKYSPSSNGRFTISRDNAKNSLYLQMNSLRAEDTAVYYCARADGLTYFSELLQYIFDLWGQGTLVTVSS VL: DIVMTQSPDSLAVSLGERATINCKSSQTLLYSSNNRHSIAWYQQKPGQPPKLLIYWASMRLSGVPDRFSGSGSGTDFTLTISSLQAEDVAVYYCHQYSSHPPTFGQGTKVEIK	2.9
